The values below come from patent US20080280300A1, “Method” (PLASTICELL LIMITED, priority 2005, published 2008).

The series concerns myeloid progenitors derived from mouse embryonic stem cells (D3 ES cells) on microcarriers. As to the kind of experiment: mESC-based cell assay for regenerative drugs: conversion of myeloid progenitors to macrophage (DQ-ovalbumin). As to conditions: 48 h, triplicate, basal level 1%. As for the experimental part: A screen was performed to identify regenerative drugs capable of stimulating the myeloid lineages of the haematopoietic system. The screen was performed by using a series of culture steps to differentiate mouse embryonic stem cells (mESC) seeded on microcarriers into progenitors of the myeloid lineages, and subsequently subjecting these to culture conditions in the presence or absence of the lineage specific haematopoietic growth factors TPO, M-CSF and IL-5, or the control compound Vitamin C which is reported to affect cell survival but is not a haematopoietic growth factor. After 48 hours the effect on myeloid cell differentiation was assessed using the appearance of macrophages as a surrogate assay. This screen identified TPO and M-CSF as haematopoietic regenerative drugs capable of stimulating the myeloid lineage.
On the day preceding day 1 of the experiment, approximately 1.5×10^4 biotinylated micocarriers equilibrated in medium A (IMDM (Gibco), 15% KOSR, 1% NEAA, 0.5% pen/strep, 0.1 mM β-ME, 1000 U/ml LIF and 1.5×10^−4 M, 1-thioglycerol (MTG; Sigma)) were added to 100 ml of medium A containing approximately 4.5×10^6 ES cells, split into three equal aliquots placed in wells of a 100 mm square petri dish (Bibby Sterilin) and incubated overnight.
In order to prepare myeloid progenitors a two step method was employed. Beads seeded with mESC as described above were incubated in IMDM containing […] retinoic acid for 72 h. The beads were then washed in PBS and transferred to Stemline™ Haematopoietic Expansion Medium (Sigma) containing 40 ng/ml SCF, 2.5 ng TGFβ1, 5 ng/ml BMP2 and 20 ng/ml TPO and incubated for 48 h:
Beads blearing myeloid progenitors prepared as described above were mixed, washed in PBS and transferred to the Test Growth Medium (Stemline™Haematopoietic Expansion Medium (Sigma) supplemented with 30 ng/ml IL-3 and 20 ng/ml IL-6). Equal aliquots of approximately 100 beads were dispensed into the wells of a 48 well plate and incubated in the presence or absence of 50 μg/ml Vitamin C, 10 ng/ml IL-5, 20 ng/ml TPO and 20 ng/ml M-CSF. The screen was carried out in triplicate in wells of separate plates placed in the same incubator.
After 48 h, 1 mg of the macrophage assay reagent DQ-ovalbumin (Molecular Probes) was made up in 0.4 ml PBS and added to each well at a dilution of 1:100. Following incubation for at least 4 h, the medium was aspirated and replaced with PBS. The samples were examined on a Nikon TE2000-S inverted epifluorescent microscope using a-FITC filter set to quantitate microcarriers bearing large, round cells internally labelled with green fluorescence.
The results of the screen are reported as the average number (per cent) of microcarriers that were decorated with macrophage. […]

[1] abbreviates: 20 ng/ml TPO or M-CSF in Test Growth Medium (IL-3, IL-6).

With `O=C1O[C@H]([C@@H](O)CO)C(O)=C1O` [Vitamin C, Ascorbic acid, reference compound], the “average conversion to macrophage (average number (per cent) of microcarriers decorated with macrophage)” value (50 μg/ml Vitamin C in Test Growth Medium (IL-3, IL-6)) is recorded as 0%.

B1: IL-5: mouse interleukin 5 (R&D Systems), haematopoietic growth factor (protein, UniProt P04401 21-133, looked up)
Interleukin-5: MEIPMSTVVKETLTQLSAHRALLTSNETMRLPVPTHKNHQLCIGEIFQGLDILKNQTVRGGTVEMLFQNLSLIKKYIDRQKEKCGEERRRTRQFLDYLQEFLGVMSTEWAMEG
Consider B1, for which the “average conversion to macrophage (average number (per cent) of microcarriers decorated with macrophage)” value (10 ng/ml IL-5 in Test Growth Medium (IL-3, IL-6)) is on record as 0%.

B2: TPO: murine thrombopoietin (R&D Systems), haematopoietic growth factor (protein, UniProt P40226 22-356, looked up)
Thrombopoietin: SPVAPACDPRLLNKLLRDSHLLHSRLSQCPDVDPLSIPVLLPAVDFSLGEWKTQTEQSKAQDILGAVSLLLEGVMAARGQLEPSCLSSLLGQLSGQVRLLLGALQGLLGTQLPLQGRTTAHKDPNALFLSLQQLLRGKVRFLLLVEGPTLCVRRTLPTTAVPSSTSQLLTLNKFPNRTSGLLETNFSVTARTAGPGLLSRLQGFRVKITPGQLNQTSRSPVQISGYLNRTHGPVNGTHGLFAGTSLQTLEASDISPGAFNKGSLAFNLQGGLPPSPSLAPDGHTPFPPSPALPTTHGSPPQLHPLFPDPSTTMPNSTAPHPVTMYPHPRNLSQET
As for B2, the “average conversion to macrophage (average number (per cent) of microcarriers decorated with macrophage)” value under setting [1] turned out to be 6%.

B3: M-CSF: murine macrophage colony stimulating factor (R&D Systems), haematopoietic growth factor (protein, UniProt P07141 33-552, looked up)
Macrophage colony-stimulating …: KEVSEHCSHMIGNGHLKVLQQLIDSQMETSCQIAFEFVDQEQLDDPVCYLKKAFFLVQDIIDETMRFKDNTPNANATERLQELSNNLNSCFTKDYEEQNKACVRTFHETPLQLLEKIKNFFNETKNLLEKDWNIFTKNCNNSFAKCSSRDVVTKPDCNCLYPKATPSSDPASASPHQPPAPSMAPLAGLAWDDSQRTEGSSLLPSELPLRIEDPGSAKQRPPRSTCQTLESTEQPNHGDRLTEDSQPHPSAGGPVPGVEDILESSLGTNWVLEEASGEASEGFLTQEAKFSPSTPVGGSIQAETDRPRALSASPFPKSTEDQKPVDITDRPLTEVNPMRPIGQTQNNTPEKTDGTSTLREDHQEPGSPHIATPNPQRVSNSATPVAQLLLPKSHSWGIVLPLGELEGKRSTRDRRSPAELEGGSASEGAARPVARFNSIPLTDTGHVEQHEGSSDPQIPESVFHLLVPGIILVLLTVGGLLFYKWKWRSHRDPQTLDSSVGRPEDSSLTQDEDRQVELPV
As for B3, the “average conversion to macrophage (average number (per cent) of microcarriers decorated with macrophage)” value under setting [1] was determined as 6%.
